Test results from US20130041138A1, “ANTIBODIES THAT BIND TO PSCA PROTEINS FOR DIAGNOSIS OF CANCER” (priority 2003, published 2013).

B1: Ha1-4.37: fully human gamma 1 anti-PSCA monoclonal antibody from XenoMouse; ATCC PTA-6702; sequences FIG. 2P-2Q (antibody, V domains shown)
VH: CPGALQESGPGLVRPSQTLSLTCTVSGGSISSGGTYYWIWIRQHPGKGLEWIGYIYYSGSTYYNPSLKSRVTISVDTSKNQFSLKLSSVTAADTAVYYCARDGITMVRGISGGMDVWGQGTTVTVSSASTKGPSVKGPSVF
VL: ASVGDRVTITCRASQSISSHLNWYQQKPGKAPKLLIYAASSLQSGVPSRFSGSGSGTDFTLSISSLQPEDFATYFCQQSYSIPRTFGQGTKVEITRTVAAPSVFIFPPSDEQLKSGTASVVCLLNNFYPREAKVQWKVDNALQSG
B2: Ha1-5.99: fully human gamma 2 anti-PSCA monoclonal antibody from XenoMouse; ATCC PTA-6703; sequences FIG. 2E-2F (antibody, V domains shown)
VH: QVHLQQWGAGLLKPSETLSLTCAVYGGSFSGYYWSWIRQPPGKGLEWIGEINHSGSTSYKPSLKSRVTVSVDTSKNQFSLKLSYVTAADTAVYYCARDRGDYGDFLFDYWGQGTLVTVSSASTKGPSVFPLAPSSKST
VL: SPGERATLSCRASQSIGSTYLAWYQQKPGQAPRLLIYGASSRATGIPERFSGSGSGTDFTLTISGLEPEDFAVFYCQQCGSSPPTFGQGTKVEIKRTVAAPSVFIFPPSDEQLKSGTASVVCLLNNFYPREAKVQWKVDNA

What was measured:
[1] = tested on: SW780 human bladder tumors; assay: Subcutaneous SW780 bladder tumor xenograft; assay type: in vivo, ICR SCID mice; conditions: 250 mg/mouse i.p. two times a week, 7 doses, from day of injection; t test
Protocol: (§1) FIG. 27. Human PSCA MAbs Inhibit the Growth of SW780 Bladder Tumors in SCID Mice. Human SW780 bladder cancer cells (2×10^6/mouse) were injected subcutaneously into immunodeficient ICR SCID mice (Taconic Farm, Germantown, N.Y.). The mice were randomized into groups (n=10 animals/group) and treatment with the indicated human PSCA MAb initiated the same day. Antibodies (250 mg/mouse) were delivered intraperitoneally two times a week for a total of 7 doses. […] Statistical analyses were performed using at test (two-sided, α=0.05).
as §1, with “In another experiment,” for “FIG. 27. Human PSCA MAbs Inhibit the Growth of SW780 Bladder Tumors in SCID Mice.”, “α=0.05) (FIG. 27).” for “α=0.05).”

[2] = target: T1, cell surface PSCA on PSCA-expressing cells (endogenous or recombinant) (Homo sapiens, UniProt O43653); assay: PSCA human MAb screening by FACS; assay type: binding
T1 construct: host or cells: PSCA-expressing cells (endogenous or recombinant)
Protocol: FIGS. 9A and 9B. Screening for human PSCA antibodies by FACS. Antibody concentration from supernatants was determined by ELISA. 50 ul/well of (neat) was added to 96-well FACS plates and serially diluted. PSCA-expressing cells were added (endogenous or recombinant, 50,000 cells/well) and the mixture incubated at 4° C. for two hours. Following incubation, the cells were washed with FACS Buffer and further incubated with 100 ul of detection antibody (anti-hIgG-PE) for 45 minutes at 4° C. At the end of incubation, the cells were washed with FACS Buffer, fixed with formaldehyde and analyzed using FACScan. Data were analyzed using CellQuest Pro software. Solid histograms represent data from negative control cells and open histograms indicate data from PSCA-positive cells.
Primary hybridoma screening for MAbs to PSCA was performed by FACS. The protocol was as follows: 50 ul/well of hybridoma supernatant (neat) or purified antibodies (in serial dilutions) were added to 96-well FACS plates and mixed with PSCA-expressing cells (endogenous or recombinant, 50,000 cells/well). The mixture was incubated at 4° C. for two hours. At the end of incubation, the cells were washed with FACS Buffer and incubated with 100 ul of detection antibody (anti-hIgG-PE) for 45 minutes at 4° C. At the end of incubation, the cells were washed with FACS Buffer, fixed with Formaldehyde and analyzed using FACScan. Data were analyzed using CellQuest Pro software. Filled histograms indicate data from negative control cells, and open histograms represent data from PSCA-positive cells (FIG. 9).
Positive hybridomas identified from primary screens were transferred to 24-well plates and supernatants collected for confirmatory screens. Confirmatory screens included FACs analysis on B300.19-PSCA/300.19-neo, Rat1-PSCA/Rat1-neo, PC3-PSCA/neo, SW780 (bladder cancer cell line), LAPC9AI (prostate cancer cell line), HPAC (pancreatic cancer cell line), and ELISA assay using Tag5-PSCA, GST-PSCA, GST-PSCA N-term, Med. C-Term, and pET-PSCA.

[3] = tested on: LAPC-9AI androgen-independent human prostate cancer xenografts; assay: Established subcutaneous LAPC-9AI prostate cancer xenograft; assay type: in vivo, SCID mice; conditions: treatment from tumor volume 50 mm3, i.p. twice weekly, 5 doses until day 14; p<0.05
Protocol: FIG. 19. PSCA MAb Ha1-5.99 Inhibits the Growth of Established Prostate Cancer Xenografts in SCID mice. LAPC-9AI tumor cells (2.0×10^6 cells) were injected subcutaneously into male SCID mice. When tumor volume reached 50 mm3, the mice were randomized into groups (n=10 in each group) and treatment initiated intraperitoneally (i.p.) with HA1-5.99.1 or isotype MAb control as indicated. Animals were treated twice weekly for a total of 5 doses until study day 14. Tumor growth was monitored using caliper measurements every 3 to 4 days as indicated.
In another experiment, LAPC-9AI tumor cells (2.0×10^6 cells) were injected subcutaneously into male SCID mice. When tumor volume reached 50 mm3, the mice were randomized into groups (n=10 in each group) and treatment initiated intraperitoneally (i.p.) with HA1-5.99.1 or isotype MAb control as indicated Animals were treated twice weekly for a total of 5 doses until study day 14. Tumor growth was monitored using caliper measurements every 3 to 4 days as indicated. […] (FIG. 19).

[4] = tested on: B300.19-PSCA expressing cells; assay: Complement mediated cytotoxicity; assay type: cell-based; conditions: 0-50 μg/ml antibody, rabbit complement serum, 2 hr 37° C., Alamar Blue
Protocol: (§2) FIG. 14. Complement mediated cytotoxicity of PSCA Mabs. PSCA antibodies (0-50 μg/ml) were diluted with RHB buffer (RPMI 1640, Gibco Life Technologies, 20 mM HEPES). B300.19-PSCA expressing cells were washed in RHB buffer and resuspended at a density of 10^6 cells/ml. In a typical assay, 50 μl of PSCA antibody, 50 μl of diluted rabbit complement serum (Cedarlane, Ontario, Can), and 50 μl of a cell suspension were added together into a flat-bottom tissue culture 96-well plate. The mixture was incubated for 2 hr. at 37° C. in a 5% CO2 incubator to facilitate complement-mediated cell lysis. […] The fluorescence in each well was read using a 96-well fluorometer with excitation at 530 nm and emission at 590 nm.
as §2, with “PSCA” for “FIG. 14. Complement mediated cytotoxicity of PSCA”, “antibodies were evaluated to determine their ability to mediate immune dependent cytotoxicity.” for “Mabs.”, “plate.” for “plate. The mixture was incubated for 2 hr. at 37° C. in a 5% CO2 incubator to facilitate complement-mediated cell lysis.”

| binding to endogenous cell surface PSCA ([2]; PSCA expressed in prostate cancer xenograft cells) | Molecule | inhibition of subcutaneous tumor growth [1] | react and bind with cell surface or immobilized PSCA [2] | inhibition of growth of established subcutaneous tumors [3] | complement dependent lysis of target cells [4] |
| --- | --- | --- | --- | --- | --- |
| – | B1 | significantly inhibited the growth | react and bind with cell surface or immobilized PSCA | – | – |
| bind endogenous cell surface PSCA | B2 | significantly inhibited the growth | react and bind with cell surface or immobilized PSCA | significantly inhibited the growth | able to mediate complement dependent lysis |
